For 2 substances, stoichiometry N results are on record in publication PMC6513524, “Production and characterization of novel ssRNA bacteriophage virus-like particles from metagenomic sequencing data” (Journal of Nanobiotechnology, 2019).

For orientation: stoichiometry N means the number of molecules, sites or subunits per partner or assembly.

Assay [1] concerns the target NFZC01007443 coat protein (ssRNA phage NFZC01007443 (metagenomic sequence)). Put plainly: non-reducing SDS-PAGE; purified VLPs in 20 mM Tris-HCl pH 8.0, 50% glycerol mixed with Laemmli buffer with or without 5% 2-mercaptoethanol, 10 min at 95 °C, 15% gel; disulfide-linked CP oligomers.
The target of assay [2] is AVE018 coat protein (ssRNA phage AVE018 (metagenomic sequence)). Described as above.

In assay [1], “NFZC01007443 coat protein (natural protein)” had a stoichiometry N of 5. As for AVE018 coat protein (natural protein), the stoichiometry N in assay [2] is 2.
